Consider 2 molecules from PMC3651781.

The series addresses T1, His-Dis3l2 D389N (mouse, UniProt Q8CI75 1-870, D389N).
T1 sequence: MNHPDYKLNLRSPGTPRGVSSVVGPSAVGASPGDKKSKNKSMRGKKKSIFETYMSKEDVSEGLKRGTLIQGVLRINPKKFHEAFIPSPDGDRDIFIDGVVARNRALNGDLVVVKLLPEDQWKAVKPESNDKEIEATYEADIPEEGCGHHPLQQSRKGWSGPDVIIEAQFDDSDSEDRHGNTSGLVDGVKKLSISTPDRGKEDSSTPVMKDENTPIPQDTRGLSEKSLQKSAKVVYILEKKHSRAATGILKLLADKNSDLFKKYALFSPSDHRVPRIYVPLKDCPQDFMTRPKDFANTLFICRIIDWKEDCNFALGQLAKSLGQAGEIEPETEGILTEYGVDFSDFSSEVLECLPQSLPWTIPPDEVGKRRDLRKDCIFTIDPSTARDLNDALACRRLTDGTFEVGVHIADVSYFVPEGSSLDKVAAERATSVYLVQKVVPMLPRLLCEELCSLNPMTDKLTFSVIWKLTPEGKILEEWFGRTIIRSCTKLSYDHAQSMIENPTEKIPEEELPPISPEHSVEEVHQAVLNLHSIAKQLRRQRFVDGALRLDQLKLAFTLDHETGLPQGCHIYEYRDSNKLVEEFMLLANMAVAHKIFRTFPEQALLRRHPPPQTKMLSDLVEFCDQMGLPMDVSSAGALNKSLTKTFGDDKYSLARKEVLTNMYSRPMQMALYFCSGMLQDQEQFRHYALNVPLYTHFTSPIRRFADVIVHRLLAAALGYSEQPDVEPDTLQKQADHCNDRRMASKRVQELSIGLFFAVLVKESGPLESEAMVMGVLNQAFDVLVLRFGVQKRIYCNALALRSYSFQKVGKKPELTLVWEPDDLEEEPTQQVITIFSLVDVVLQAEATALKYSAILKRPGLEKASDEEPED
In words: EMSA. (In general: A gel shift assay detects complexes by their altered migration in electrophoresis.)

B1: mmu-pre-let-7a-1+14U (structured_RNA)
RNA: UGAGGUAGUAGGUUGUAUAGUUUUAGGGUCACACCCACCACUGGGAGAUAACUAUACAAUCUACUGUCUUUCCUUUUUUUUUUUUUU
Turning to B1, the binding result is given as “binds”.

B2: mmu-pre-let-7a-1 (structured_RNA)
RNA: UGAGGUAGUAGGUUGUAUAGUUUUAGGGUCACACCCACCACUGGGAGAUAACUAUACAAUCUACUGUCUUUCC
Turning to B2, the binding result is on record as “no binding”.
